Source: the Immune Epitope Database (IEDB)
pIC50, pKd: −log10 of the molar value. Values belong to the sequence of their own block, whether it stands above or below them.

Columns and labels:
[1] = biological target: HLA-A*02:01; test: IEDB peptide-MHC binding, purified MHC/competitive/radioactivity; ≥ and ≤ were set here for values at or beyond the usual limits of such assays
[2] = biological target: HLA-C*08:02; test: IEDB peptide-MHC binding, purified MHC/direct/fluorescence; filed as Kd, often an IC50 or EC50 that approximates it; ≥ and ≤ were set here for values at or beyond the usual limits of such assays
[3] = biological target: HLA-B*35:01; test: IEDB peptide-MHC binding, purified MHC/competitive/fluorescence; filed as Kd, often an IC50 or EC50 that approximates it; ≥ and ≤ were set here for values at or beyond the usual limits of such assays; details: source organism: Yersinia pestis Antiqua
[4] = biological target: HLA-A*03:01; test: as above; details: source organism: Yersinia pestis Antiqua
[5] = biological target: HLA-A*01:01; test: as above; details: source organism: Yersinia pestis Antiqua
[6] = biological target: HLA-A*68:02; test: IEDB peptide-MHC binding, purified MHC/direct/fluorescence; filed as Kd, often an IC50 or EC50 that approximates it; ≥ and ≤ were set here for values at or beyond the usual limits of such assays
[7] = biological target: HLA-B*18:01; test: as above
[8] = biological target: HLA-B*15:09; test: as above; details: source organism: Campylobacter jejuni subsp. jejuni CG8486
[9] = biological target: HLA-A*24:02; test: as above
[10] = biological target: HLA-B*58:01; test: as above
[11] = biological target: HLA-A*31:01; test: as above
[12] = biological target: HLA-A*26:03; test: as above; details: source organism: Campylobacter jejuni subsp. jejuni CG8486
[13] = biological target: HLA-A*69:01; test: as above
[14] = biological target: HLA-B*27:05; test: as above
[15] = biological target: HLA-A*23:01; test: as above
[16] = biological target: HLA-B*39:01; test: as above
[17] = biological target: HLA-B*15:01; test: as above
[18] = biological target: HLA-A*11:01; test: as above
[19] = biological target: HLA-B*57:01; test: as above
[20] = biological target: HLA-A*03:01; test: as above
[21] = biological target: HLA-A*24:03; test: as above
[22] = biological target: HLA-B*15:17; test: as above; details: source organism: Campylobacter jejuni
[23] = biological target: HLA-A*02:01; test: as above
[24] = biological target: HLA-B*07:02; test: as above
[25] = biological target: HLA-A*01:01; test: as above
[26] = biological target: HLA-A*26:02; test: IEDB peptide-MHC binding, purified MHC/competitive/fluorescence; filed as Kd, often an IC50 or EC50 that approximates it; ≥ and ≤ were set here for values at or beyond the usual limits of such assays; details: source organism: Campylobacter jejuni subsp. jejuni NCTC 11168 = ATCC 700819
[27] = biological target: HLA-B*45:06; test: as above; details: source organism: Giardia lamblia ATCC 50803
[28] = biological target: HLA-A*31:01; test: as above; details: source organism: Giardia lamblia ATCC 50803
[29] = biological target: HLA-B*15:42; test: as above; details: source organism: Giardia lamblia ATCC 50803
[30] = biological target: HLA-A*32:07; test: as above; details: source organism: Giardia lamblia ATCC 50803
[31] = biological target: HLA-B*83:01; test: as above; details: source organism: Giardia lamblia ATCC 50803
[32] = biological target: HLA-A*26:02; test: IEDB peptide-MHC binding, purified MHC/direct/fluorescence; filed as Kd, often an IC50 or EC50 that approximates it; ≥ and ≤ were set here for values at or beyond the usual limits of such assays; details: source organism: Vibrio vulnificus CMCP6
[33] = biological target: HLA-A*26:01; test: as above
[34] = biological target: HLA-A*11:01; test: IEDB peptide-MHC binding, purified MHC/competitive/fluorescence; filed as Kd, often an IC50 or EC50 that approximates it; ≥ and ≤ were set here for values at or beyond the usual limits of such assays; details: source organism: Vibrio vulnificus YJ016
[35] = biological target: HLA-B*15:17; test: as above; details: source organism: Vibrio vulnificus YJ016
[36] = biological target: HLA-B*08:01; test: IEDB peptide-MHC binding, purified MHC/direct/fluorescence; filed as Kd, often an IC50 or EC50 that approximates it; ≥ and ≤ were set here for values at or beyond the usual limits of such assays; details: source organism: Escherichia coli O157:H7
[37] = biological target: HLA-B*44:02; test: as above; details: source organism: Escherichia coli O157:H7
[38] = biological target: HLA-B*35:01; test: as above
[39] = biological target: HLA-B*40:01; test: as above; details: source organism: Escherichia coli O157:H7
[40] = biological target: HLA-C*03:03; test: as above; details: source organism: Listeria monocytogenes EGD-e
[41] = source organism: Campylobacter jejuni
[42] = source organism: Vibrio vulnificus
[43] = source organism: Vibrio vulnificus CMCP6
[44] = source organism: Escherichia coli O157:H7
[45] = source organism: Escherichia coli
[46] = source organism: Salmonella enterica subsp. enterica serovar Typhimurium

pIC50 ([1]; source organism: Homo sapiens): 6.39
Sequence: RTFSPTYGL

Sequence: FVADSTPLY
pKd ([2]; source organism: Yersinia pestis Antiqua): ≤ 4.70 | pKd [3]: ≥ 10.00 | pKd [4]: ≤ 4.70 | pKd [5]: 8.74

Sequence: TVLEYLVSFGV
pIC50 ([1]; source organism: Hepatitis B virus): 6.53

Sequence: WFGHLASDW
pKd [6, 41]: ≤ 4.70 | pKd [7, 41]: ≤ 4.70 | pKd [8]: ≤ 4.70 | pKd [9, 41]: 5.80 | pKd [10, 41]: 4.89 | pKd [11, 41]: ≤ 4.70 | pKd [12]: ≤ 4.70 | pKd [13, 41]: ≤ 4.70 | pKd [14, 41]: ≤ 4.70 | pKd [15, 41]: 6.47 | pKd ([16]; source organism: Campylobacter jejuni subsp. jejuni CG8486): ≤ 4.70 | pKd [17, 41]: 5.15 | pKd [18, 41]: ≤ 4.70 | pKd [19, 41]: ≤ 4.70 | pKd [20, 41]: ≤ 4.70 | pKd [21, 41]: 7.67 | pKd [22]: ≤ 4.70 | pKd [23, 41]: ≤ 4.70 | pKd [24, 41]: ≤ 4.70 | pKd [25, 41]: ≤ 4.70 | pKd [26]: ≤ 4.70

Sequence: RLYPFGSYY
pKd ([20]; source organism: Giardia lamblia ATCC 50803): ≥ 9.00 | pKd [27]: ≤ 5.30 | pKd [28]: 7.50 | pKd [29]: ≤ 5.30 | pKd [30]: 8.39 | pKd [31]: ≤ 5.30

Sequence: PHPVVVRTL
pKd [6, 42]: ≤ 4.70 | pKd [7, 42]: ≤ 4.70 | pKd [9, 42]: 4.74 | pKd [10, 42]: ≤ 4.70 | pKd [11, 42]: ≤ 4.70 | pKd [32]: ≤ 4.70 | pKd [13, 42]: ≤ 4.70 | pKd [14, 42]: ≤ 4.70 | pKd [33, 43]: ≤ 4.70 | pKd [15, 42]: ≤ 4.70 | pKd [16, 43]: ≤ 4.70 | pKd [17, 42]: 6.11 | pKd [19, 42]: ≤ 4.70 | pKd [20, 42]: ≤ 4.70 | pKd [21, 42]: ≤ 4.70 | pKd [23, 42]: ≤ 4.70 | pKd [24, 42]: ≤ 4.70 | pKd [25, 42]: ≤ 4.70 | pKd [34]: ≤ 4.70 | pKd [35]: ≤ 4.70

pKd [36]: ≤ 4.70 | pKd [10, 44]: ≤ 4.70 | pKd [37]: ≤ 4.70 | pKd [11, 44]: ≤ 4.70 | pKd [38, 45]: 7.00 | pKd [13, 44]: ≤ 4.70 | pKd [14, 44]: ≤ 4.70 | pKd [39]: ≤ 4.70 | pKd [33, 44]: ≤ 4.70 | pKd [17, 44]: ≤ 4.70 | pKd [18, 44]: ≤ 4.70 | pKd [20, 44]: ≤ 4.70 | pKd [21, 45]: ≤ 4.70 | pKd [23, 44]: ≤ 4.70 | pKd [24, 45]: 5.11 | pKd [25, 44]: ≤ 4.70
Sequence: DPRDDLSGM

pKd [36]: ≤ 4.70 | pKd [10, 44]: ≤ 4.70 | pKd [37]: ≤ 4.70 | pKd [11, 44]: ≤ 4.70 | pKd [38, 44]: 6.98 | pKd [13, 44]: 7.83 | pKd [14, 44]: ≤ 4.70 | pKd [39]: ≤ 4.70 | pKd [33, 44]: 5.18 | pKd [17, 44]: ≤ 4.70 | pKd [18, 44]: ≤ 4.70 | pKd [20, 44]: ≤ 4.70 | pKd [23, 44]: ≤ 4.70 | pKd [24, 44]: ≤ 4.70 | pKd [25, 44]: ≤ 4.70
Sequence: DISPTNIPL

Sequence: FLPDKAIDL
pKd [40]: 7.70 | pKd ([13]; source organism: Bacillus anthracis): 4.77 | pKd ([2]; source organism: Listeria monocytogenes EGD-e): 7.33

Sequence: ATISYRIKL
pKd [36]: ≤ 4.70 | pKd [10, 44]: ≤ 4.70 | pKd [37]: ≤ 4.70 | pKd [11, 44]: ≤ 4.70 | pKd [38, 46]: 6.27 | pKd [13, 46]: 7.25 | pKd [14, 44]: ≤ 4.70 | pKd [39]: ≤ 4.70 | pKd [33, 46]: 5.58 | pKd [17, 44]: ≤ 4.70 | pKd [18, 46]: 7.26 | pKd [20, 44]: ≤ 4.70 | pKd [23, 46]: 6.97 | pKd [24, 44]: ≤ 4.70 | pKd [25, 44]: ≤ 4.70

Sequence: DLNTSAGFPYV
pIC50 ([1]; source organism: Rhinovirus C): 6.30
